The Immune Epitope Database (IEDB)

Tests used:
[1] = molecular target: HLA-B*44:02; assay: IEDB peptide-MHC binding, purified MHC/competitive/radioactivity; filed as Kd, often an IC50 or EC50 that approximates it; ≥ and ≤ were set here for values at or beyond the usual limits of such assays
[2] = molecular target: HLA-B*44:03; assay: as above
[3] = molecular target: HLA-A*01:01; assay: as above
[4] = molecular target: HLA-A*30:02; assay: as above
[5] = molecular target: HLA-B*15:01; assay: as above
[6] = molecular target: HLA-A*24:02; assay: as above
[7] = molecular target: HLA-A*23:01; assay: as above
[8] = molecular target: HLA-A*29:02; assay: as above
[9] = molecular target: HLA-A*26:01; assay: as above
[10] = molecular target: HLA-A*31:01; assay: IEDB peptide-MHC binding, purified MHC/direct/fluorescence; filed as Kd, often an IC50 or EC50 that approximates it; ≥ and ≤ were set here for values at or beyond the usual limits of such assays
[11] = molecular target: HLA-A*33:01; assay: IEDB peptide-MHC binding, purified MHC/competitive/radioactivity; filed as Kd, often an IC50 or EC50 that approximates it; ≥ and ≤ were set here for values at or beyond the usual limits of such assays; conditions: source organism: SARS coronavirus Tor2
[12] = molecular target: HLA-A*68:01; assay: as above; conditions: source organism: SARS coronavirus Tor2
[13] = molecular target: HLA-B*40:01; assay: as above
[14] = molecular target: HLA-A*30:01; assay: as above; conditions: source organism: Dengue virus 3 Martinique/1243/1999
[15] = molecular target: HLA-B*53:01; assay: as above
[16] = molecular target: HLA-A*01:01; assay: IEDB peptide-MHC binding, purified MHC/direct/fluorescence; filed as Kd, often an IC50 or EC50 that approximates it; ≥ and ≤ were set here for values at or beyond the usual limits of such assays; conditions: source organism: SARS-CoV1
[17] = molecular target: HLA-A*03:01; assay: as above
[18] = molecular target: HLA-A*11:01; assay: as above; conditions: source organism: SARS-CoV1
[19] = molecular target: HLA-B*58:01; assay: as above; conditions: source organism: SARS-CoV1
[20] = molecular target: HLA-B*15:01; assay: as above; conditions: source organism: Mammarenavirus lassaense
[21] = source organism: Dengue virus 2 Jamaica/1409/1983
[22] = source organism: Dengue virus 1 Singapore/S275/1990
[23] = source organism: SARS coronavirus Tor2
[24] = source organism: Dengue virus 3 Martinique/1243/1999
[25] = source organism: Dengue virus 1 Brazil/97-11/1997
[26] = source organism: Dengue virus 4 Philippines/H241/1956
[27] = source organism: Vaccinia virus WR
[28] = source organism: Mammarenavirus lassaense
[29] = source organism: Mammarenavirus whitewaterense
[30] = source organism: Mammarenavirus machupoense
[31] = source organism: Mammarenavirus juninense
[32] = source organism: Mammarenavirus guanaritoense
[33] = source organism: Triticum aestivum
[34] = source organism: Shigella sonnei Ss046
[35] = source organism: Lymphocytic choriomeningitis virus (strain Armstrong)
[36] = source organism: Lassa virus Josiah
[37] = source organism: Mammarenavirus brazilense
[38] = source organism: Mammarenavirus choriomeningitidis

AECPNTNRAW
Kd [1, 21]: 35.6 nM
Kd [2, 21]: 53 nM

ALGKSEFQIY
Kd [3, 21]: 1540 nM
Kd [4, 21]: ≥ 69700 nM

AQIMEVTARW
Kd [1, 22]: 156 nM
Kd [2, 22]: 104 nM

AQKRAAAGIM
Kd [5, 21]: 68.7 nM

ASEFSSLPSY
Kd [6, 23]: ≥ 70300 nM
Kd [7, 23]: ≥ 70000 nM
Kd [3, 23]: 14.1 nM
Kd [4, 23]: 47.4 nM
Kd [8, 23]: 102 nM
Kd [9, 23]: 11900 nM

AVLQSGFRK
Kd ([10]; source organism: SARS-CoV1): 186 nM
Kd [11]: ≥ 77700 nM
Kd [12]: 393 nM

AWEILKFLI
Kd [6, 23]: 2960 nM
Kd [7, 23]: 3630 nM
Kd [3, 23]: ≥ 78100 nM
Kd [4, 23]: ≥ 25300 nM
Kd [8, 23]: 4100 nM
Kd [9, 23]: ≥ 57000 nM

AYNVVNKGHF
Kd [6, 23]: 316 nM
Kd [7, 23]: 476 nM
Kd [3, 23]: ≥ 55200 nM
Kd [4, 23]: 11200 nM
Kd [8, 23]: 978 nM
Kd [9, 23]: ≥ 37500 nM

EEFLDYMPSM
Kd [13, 24]: 142 nM
Kd [14]: 2290 nM
Kd [2, 24]: 70.8 nM

EERDDTLTIL
Kd [13, 25]: 22 nM

EPSKGWKNW
Kd [15, 26]: 608 nM

ESQMLIPKAY
Kd [3, 26]: ≥ 39300 nM
Kd [4, 26]: 8.93 nM

ESVKTQFNY
Kd [6, 23]: ≥ 77600 nM
Kd [7, 23]: ≥ 77800 nM
Kd [3, 23]: 2610 nM
Kd [4, 23]: 505 nM
Kd [8, 23]: 31.2 nM
Kd [9, 23]: 902 nM

FETTMRGAKR
Kd [13, 21]: 3580 nM

FIDTIKSLDY
Kd [6, 23]: ≥ 70300 nM
Kd [7, 23]: ≥ 70000 nM
Kd [3, 23]: 458 nM
Kd [4, 23]: 4390 nM
Kd [8, 23]: 506 nM
Kd [9, 23]: ≥ 24900 nM

FLHNYILYA
Kd [5, 27]: 1560 nM

FWITAIYVF
Kd [6, 23]: 853 nM
Kd [7, 23]: 163 nM
Kd [3, 23]: 629 nM
Kd [4, 23]: 22.8 nM
Kd [8, 23]: 26.9 nM
Kd [9, 23]: 547 nM

GEFRLRGEQR
Kd [13, 26]: 1400 nM

GEKALKLSW
Kd [1, 25]: 39.7 nM
Kd [2, 25]: 40.2 nM

GESNIVIGI
Kd [1, 24]: 10.8 nM
Kd [13, 24]: 2.36 nM
Kd [2, 24]: 5.95 nM

GLAAEWVLAY
Kd [6, 23]: ≥ 70300 nM
Kd [7, 23]: ≥ 70000 nM
Kd [3, 23]: 466 nM
Kd [4, 23]: 858 nM
Kd [8, 23]: 69.4 nM
Kd [9, 23]: 363 nM

GTDSGFAAY
Kd [16]: 13 nM
Kd ([17]; source organism: SARS-CoV1): 714 nM
Kd [18]: 103 nM
Kd [19]: 11600 nM
Kd [6, 23]: ≥ 77600 nM
Kd [7, 23]: ≥ 77800 nM
Kd [4, 23]: 15.7 nM
Kd [8, 23]: 52.9 nM
Kd [9, 23]: 2350 nM

HERGRPLLF
Kd [2, 26]: 1000 nM

HETGRLEPSW
Kd [1, 26]: ≥ 70200 nM
Kd [2, 26]: 188 nM

IGKALHQVF
Kd [5, 21]: 374 nM

IPQWEPSKGW
Kd [15, 25]: 90 nM

IQNKLSSTF
Kd [20]: 24 nM
Kd [6, 28]: 272 nM
Kd [7, 28]: 345 nM
Kd [8, 28]: ≥ 35000 nM

IQPFLALGF
Kd [5, 24]: 16.5 nM

IYQPESQKF
Kd [6, 29]: 33.5 nM
Kd [7, 29]: 53.4 nM
Kd [8, 29]: 412 nM

IYVILTILTI
Kd [6, 26]: 48.6 nM
Kd [7, 26]: 11.8 nM

KEENMVKSLV
Kd [13, 24]: 243 nM

KEFASGRKSI
Kd [13, 26]: 111 nM

KEGTFHTMW
Kd [1, 21]: 102 nM
Kd [2, 21]: 47 nM

KGCKLTETM
Kd [5, 27]: 1250 nM

KIKHKGMSF
Kd [5, 27]: 47.2 nM

LETPNLAERV
Kd [13, 22]: 1010 nM

LIDGISLGL
Kd ([3]; source organism: Dengue virus 4 Dominica/814669/1981): 10400 nM

LIGLTSRATW
Kd [15, 21]: 459 nM

LMANLAPHL
Kd [6, 23]: ≥ 31200 nM
Kd [7, 23]: 11800 nM
Kd [3, 23]: 6080 nM
Kd [4, 23]: 12000 nM
Kd [8, 23]: 3650 nM
Kd [9, 23]: ≥ 77900 nM

LPEEQDQNY
Kd [15, 24]: 1520 nM

LSSGEPHCA
Kd [6, 30]: ≥ 77500 nM
Kd [7, 30]: ≥ 48000 nM
Kd [3, 30]: 4360 nM
Kd [4, 30]: 4600 nM
Kd [8, 30]: ≥ 78900 nM
Kd [9, 30]: ≥ 77900 nM

LTALRLCAY
Kd [6, 23]: ≥ 35300 nM
Kd [7, 23]: 7110 nM
Kd [3, 23]: 7.86 nM
Kd [4, 23]: 54.5 nM
Kd [8, 23]: 136 nM
Kd [9, 23]: 961 nM

LTDGEERVIL
Kd [3, 21]: ≥ 23600 nM

LTLTAAVLML
Kd [3, 25]: 6160 nM

LWEGSPGKF
Kd [6, 25]: 6160 nM
Kd [7, 25]: 7640 nM

LWYAQIQPHW
Kd [6, 21]: 13.1 nM
Kd [7, 21]: 203 nM

LYIKDIFTR
Kd [3, 31]: ≥ 78100 nM
Kd [4, 31]: ≥ 76900 nM
Kd [9, 31]: ≥ 77900 nM

LYKLMGHFSW
Kd [6, 23]: 83.1 nM
Kd [7, 23]: 89.6 nM
Kd [3, 23]: 18400 nM
Kd [4, 23]: 17100 nM
Kd [8, 23]: 8090 nM
Kd [9, 23]: ≥ 20000 nM

MIDKTPVHSW
Kd ([15]; source organism: Dengue virus 4 Thailand/0348/1991): 725 nM

MSPALFHAFF
Kd [6, 32]: 122 nM
Kd [7, 32]: 148 nM
Kd [8, 32]: 513 nM

MWLSYFVASF
Kd [6, 23]: 15.4 nM
Kd [7, 23]: 0.257 nM
Kd [3, 23]: 1140 nM
Kd [4, 23]: 2400 nM
Kd [8, 23]: 38.5 nM
Kd [9, 23]: 142 nM

NEMGLIEKT
Kd [2, 26]: 2000 nM

PATLFVWYF
Kd [15, 25]: 1890 nM

PVNDLKYSW
Kd [15, 26]: 782 nM

PYLGKREDLW
Kd [6, 26]: 1620 nM
Kd [7, 26]: 505 nM

QEKGKSLLF
Kd [1, 21]: 52.7 nM
Kd [2, 21]: 1140 nM

QENPYRTWAY
Kd [1, 26]: 7.66 nM
Kd [13, 26]: 1600 nM
Kd [2, 26]: 8.86 nM

QPSKGWHDW
Kd [15, 24]: 207 nM

QYPLGQGSF
Kd [6, 33]: 1450 nM
Kd [7, 33]: 8090 nM
Kd [3, 33]: ≥ 71000 nM
Kd [4, 33]: 1460 nM
Kd [8, 33]: ≥ 22900 nM
Kd [9, 33]: ≥ 77900 nM

RPVLFRYTR
Kd [10, 34]: 416 nM
Kd [17, 34]: ≥ 20000 nM

RYNLDPDTI
Kd [6, 32]: 2970 nM
Kd [7, 32]: 6790 nM
Kd [8, 32]: ≥ 40600 nM

SLSLISHVV
Kd [6, 35]: ≥ 77500 nM
Kd [7, 35]: ≥ 77700 nM
Kd [3, 35]: ≥ 44700 nM
Kd [4, 35]: 1440 nM
Kd [8, 35]: ≥ 60400 nM
Kd [9, 35]: ≥ 77900 nM

STSQKSIVAY
Kd [6, 23]: ≥ 70300 nM
Kd [7, 23]: ≥ 70000 nM
Kd [3, 23]: 534 nM
Kd [4, 23]: 17.1 nM
Kd [8, 23]: 44.5 nM
Kd [9, 23]: 790 nM

STTEAILPEY
Kd [3, 24]: 232 nM
Kd [4, 24]: ≥ 61200 nM
Kd [9, 24]: 48 nM

SYLAGAGLAF
Kd [6, 25]: 71.5 nM
Kd [7, 25]: 4.35 nM

SYSMCTGKF
Kd [6, 21]: 108 nM
Kd [7, 21]: 142 nM

TEKDSPVNI
Kd [1, 21]: 587 nM

TWALCEALTL
Kd [6, 21]: 114 nM
Kd [7, 21]: 511 nM

VEIALYQPI
Kd [6, 28]: ≥ 38000 nM
Kd [7, 28]: 1480 nM
Kd [3, 28]: ≥ 78100 nM
Kd [4, 28]: ≥ 40100 nM
Kd [8, 28]: ≥ 78900 nM
Kd [9, 28]: ≥ 77900 nM

VEIWTKEGEK
Kd [13, 24]: 754 nM

VEPWLKNNQF
Kd [1, 24]: 93.7 nM
Kd [13, 24]: 1620 nM
Kd [2, 24]: 162 nM

VFRTSTPRVV
Kd [6, 36]: ≥ 70300 nM
Kd [7, 36]: ≥ 70000 nM
Kd [3, 36]: ≥ 70400 nM
Kd [4, 36]: 6350 nM
Kd [8, 36]: ≥ 71400 nM
Kd [9, 36]: ≥ 69700 nM

VTDFKGKTV
Kd [3, 21]: ≥ 20300 nM

VTDVTLLMA
Kd [6, 37]: ≥ 77500 nM
Kd [7, 37]: 18200 nM
Kd [3, 37]: 8.7 nM
Kd [4, 37]: 423 nM
Kd [8, 37]: ≥ 23400 nM
Kd [9, 37]: ≥ 77900 nM

VYPLSIPATL
Kd [6, 22]: 111 nM
Kd [7, 22]: 15.3 nM

WCSQTNYQY
Kd [6, 38]: ≥ 77500 nM
Kd [7, 38]: ≥ 77700 nM
Kd [3, 38]: 964 nM
Kd [4, 38]: 734 nM
Kd [8, 38]: 204 nM
Kd [9, 38]: ≥ 77900 nM

WEPSKGWKNW
Kd [1, 26]: 150 nM
